From patent US20230416363A1 (KADMON, published 2023) come the findings set out here.

For experiment [1], the target named is T1, hPD1 (soluble, ELISA of Example 20) (human, UniProt Q15116 25-167, limits assumed). The experiment is described as follows: ELISA, hPD1. For orientation: ELISA stands for enzyme-linked immunosorbent assay.
Experiment [2] concerns the target T2, mPD1 (soluble, ELISA of Examples 20 and 24) (mouse, UniProt Q02242 25-167, limits assumed).
T2 construct: also called Biotin-mPD1
T2 sequence (looked up): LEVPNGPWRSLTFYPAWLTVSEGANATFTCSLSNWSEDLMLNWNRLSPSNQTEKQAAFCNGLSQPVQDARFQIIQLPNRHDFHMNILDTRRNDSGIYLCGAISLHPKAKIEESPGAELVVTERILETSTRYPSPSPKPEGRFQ
The experiment is described as follows: ELISA, mPD1.

Experiment [3] addresses T3, human PD-1 expressed on cells (human, UniProt Q15116 25-288). The experiment is described as follows: cell-based or functional assay.
For experiment [4], the target named is T4, mouse PD-1 expressed on cells (mouse, UniProt Q02242 25-288).
T4 sequence (looked up): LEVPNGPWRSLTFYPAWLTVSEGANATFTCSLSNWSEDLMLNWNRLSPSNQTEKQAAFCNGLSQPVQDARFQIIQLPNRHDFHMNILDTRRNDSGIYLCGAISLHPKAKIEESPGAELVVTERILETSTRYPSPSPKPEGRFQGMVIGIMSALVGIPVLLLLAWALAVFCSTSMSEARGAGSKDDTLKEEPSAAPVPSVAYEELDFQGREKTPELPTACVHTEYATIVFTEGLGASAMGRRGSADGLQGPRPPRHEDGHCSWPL
The experiment is described as follows: cell-based or functional assay.

The target in experiment [5] is T5, hPD-1-Fc (human, UniProt Q15116 25-167).
T5 construct: domain: IgV domain; also called human PD-1-Fc; not shown: human IgG1 Fc
T5 sequence (Q15116 25-167 limits assumed): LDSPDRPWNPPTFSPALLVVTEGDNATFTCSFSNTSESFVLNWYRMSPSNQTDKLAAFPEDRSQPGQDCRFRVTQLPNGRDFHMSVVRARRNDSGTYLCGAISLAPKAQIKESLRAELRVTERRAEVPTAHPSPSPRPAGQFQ
The experiment is described as follows: SPR Biacore, hPD1-Fc. On the technique in general: In SPR one partner is held on a chip, and binding of the other changes the refractive index at the surface.

Experiment [6] concerns the target T6, mPD-1-Fc (mouse; human, UniProt Q02242 25-167, limits assumed).
T6 construct: domain: IgV domain; not shown: human IgG1 Fc
T6 sequence (looked up): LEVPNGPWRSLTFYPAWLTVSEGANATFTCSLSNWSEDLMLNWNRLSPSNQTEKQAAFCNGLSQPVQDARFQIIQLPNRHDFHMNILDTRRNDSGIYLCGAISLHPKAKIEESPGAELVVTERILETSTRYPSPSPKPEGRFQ
The experiment is described as follows: SPR Biacore, mPD1-Fc.

Experiment [7] has as its target T7, mPD-1-his (mouse, UniProt Q02242 25-167, limits assumed).
T7 construct: domain: IgV domain
T7 sequence: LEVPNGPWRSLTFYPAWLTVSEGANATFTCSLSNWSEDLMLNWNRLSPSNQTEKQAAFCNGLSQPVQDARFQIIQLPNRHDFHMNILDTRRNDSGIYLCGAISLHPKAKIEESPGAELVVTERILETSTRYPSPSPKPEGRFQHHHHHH
The experiment is described as follows: SPR Biacore, mPD1-his.

For experiment [8], the target named is T1, hPD1 (soluble, ELISA of Example 20). The experiment is described as follows: blocking ELISA, hPD1 to hPDL1.
Experiment [9] concerns the target T2, mPD1 (soluble, ELISA of Examples 20 and …). The experiment is described as follows: blocking ELISA, mPD1 to mPDL1.
Experiment [10] has as its target T3, human PD-1 expressed on cells. The experiment is described as follows: flow cytometry, hPD1-293 cells. In general terms: A flow cytometer gives signals particle by particle.
Experiment [11] has as its target T4, mouse PD-1 expressed on cells. The experiment is described as follows: flow cytometry, mPD1-293 cells.
For experiment [12] the target is unchanged. The experiment is described as follows: flow cytometry, mPD1-eff cells.
The target in experiment [13] is T2, mPD1 (soluble, ELISA of Examples 20 and …). The experiment is described as follows: ELISA, biotin-mPD1 on streptavidin.
Experiment [14] deals with T6, mPD-1-Fc. The experiment is described as follows: blocking ELISA, mPD-1 to PD-L1.
The target of experiment [15] is T5, hPD-1-Fc. The experiment is described as follows: SPR, Exp. 1.
Experiment [16] has as its target T8, hPD-1-his (human, UniProt Q15116 25-167).
T8 construct: domain: IgV domain; monomer in solution; biotin-labelled where captured by streptavidin; also called biotin-hPD-1-his
The experiment is described as follows: SPR, Exp. 1.

Experiment [17] deals with T5, hPD-1-Fc. The experiment is described as follows: SPR, Exp. 2.
The target in experiment [18] is T8, hPD-1-his. The experiment is described as follows: SPR, Exp. 2.
The target in experiment [19] is T5, hPD-1-Fc. The experiment is described as follows: SPR, Exp. 3.
Experiment [20] has as its target T8, hPD-1-his. The experiment is described as follows: SPR, Exp. 3.
The target in experiment [21] is T8, hPD-1-his. The experiment is described as follows: SPR, Exp. 4.
In experiment [22] the target is T5, hPD-1-Fc. The experiment is described as follows: ELISA, hPD1-Fc coated.
Experiment [23] concerns the target T5, hPD-1-Fc. The experiment is described as follows: ELISA, PD-1-Fc coated.
In experiment [24] the target is T3, human PD-1 expressed on cells. The experiment is described as follows: cell-based or functional assay. This is another data set of the same source.
In experiment [25] the target is T8, hPD-1-his. The experiment is described as follows: ELISA, PD-1-his on anti-his.
Experiment [26] deals with T5, hPD-1-Fc. The experiment is described as follows: SPR, range over experiments.
For experiment [27], the target named is T8, hPD-1-his. The experiment is described as follows: ELISA, hPD-1-his on anti-his.
Experiment [28] has as its target T5, hPD-1-Fc. The experiment is described as follows: blocking ELISA, PD-1 to PD-L1.
For experiment [29], the target named is T5, hPD-1-Fc. The experiment is described as follows: blocking ELISA, PD-1 to PD-L2.
Experiment [30] concerns the target T3, human PD-1 expressed on cells. The experiment is described as follows: flow cytometry, hPD1-293 cells. This is another data set of the same source.
For experiment [31] the target is unchanged. The experiment is described as follows: flow cytometry, hPD-1-293 cells.
Experiment [32] has the same target. The experiment is described as follows: flow cytometry, hPD1-Jurkat cells.
The target is the same in experiment [33]. The experiment is described as follows: flow cytometry, hPD-1-Jurkat cells.
The target of experiment [34] is T5, hPD-1-Fc. The experiment is described as follows: blocking ELISA, hPD-1-Fc to hPD-L1-Fc.
Experiment [35] deals with T5, hPD-1-Fc. The experiment is described as follows: SPR Biacore T200, PD-1-Fc immobilised.
Experiment [36] addresses T8, hPD-1-his. The experiment is described as follows: SPR Biacore T200, PD-1-his immobilised.
The target in experiment [37] is T8, hPD-1-his. The experiment is described as follows: ELISA, biotin-PD-1-his on streptavidin.
Experiment [38] addresses T8, hPD-1-his. The experiment is described as follows: ELISA, biotin-hPD-1-his on streptavidin.
Experiment [39] concerns the target T3, human PD-1 expressed on cells. The experiment is described as follows: flow cytometry, activated PBMC donor FA.
For experiment [40] the target is unchanged. The experiment is described as follows: flow cytometry, activated PBMC donor two.
The target is the same in experiment [41]. The experiment is described as follows: flow cytometry, SEB-activated PBMC donor.
For experiment [42] the target is unchanged. The experiment is described as follows: flow cytometry, SEB-activated PBMC donor two.

The EC50 is the concentration at which the effect is half-maximal. Read a low EC50 as greater potency. By Kd is commonly meant the free concentration of one partner at which half of the binding sites on the other are occupied at equilibrium, for simple one-to-one binding. Read a low Kd as tighter binding. As a reminder, the koff is a measure of how fast the partners let go of each other. The kon is the rate constant with which the complex forms. A higher kon goes with faster complex formation. Broadly, the IC50 is the concentration needed to halve the response being measured. Lower therefore signals inhibition by little substance.

T3 sequence (Q15116 25-288): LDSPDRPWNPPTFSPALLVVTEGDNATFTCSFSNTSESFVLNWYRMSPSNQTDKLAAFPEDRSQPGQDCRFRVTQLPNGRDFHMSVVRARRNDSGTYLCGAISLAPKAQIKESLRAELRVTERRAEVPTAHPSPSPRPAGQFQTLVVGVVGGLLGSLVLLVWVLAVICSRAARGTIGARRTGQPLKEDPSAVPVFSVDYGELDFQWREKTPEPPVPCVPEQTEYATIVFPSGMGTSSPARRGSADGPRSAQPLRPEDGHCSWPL
T8 sequence (Q15116 other isoform, or with tags, fused parts or gaps limits assumed): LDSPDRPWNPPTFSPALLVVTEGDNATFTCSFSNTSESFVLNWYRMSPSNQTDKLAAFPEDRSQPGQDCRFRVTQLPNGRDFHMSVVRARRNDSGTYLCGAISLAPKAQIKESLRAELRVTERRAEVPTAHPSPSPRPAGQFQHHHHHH
T1 sequence (Q15116 25-167 limits assumed): as the sequence (Q15116 25-167 limits assumed) above

B1: m2C1 (antibody, V domains shown)
VH: QVQLVQSGAEVKKPGASVKVSCKASGHTFTSYYIHWVRQAPGQGLEWMGIINPSGGSTSYAQKFQGRVTMTRDTSTSTVYMELSSLRSEDTAVYYCARDRAYGGAGDYWGQGTLVTVSS
VL: DIQMTQSPSSLSASVGDRVTITCRASRSISSWLAWYQQKPGKAPKLLIYAASSLQSGVPSRFSGSGSGTDFTLTISSLQPEDFATYYCQQSYSIPATFGQGTKVEIK
notes: R3A9 derivative; also called m3CM (apparent misprint)
With B1, the EC50 in experiment [1] came out at 149 pM; in experiment [2], 572 pM; in experiment [10] it was 1260 pM; in experiment [11] it was 411 pM; in experiment [12], 373 pM; in experiment [13], 291 pM. The “IC50, Promega blockade bioassay” value in experiment [3] was determined as 31200 pM; in [4], 1130 pM. For the same molecule, the dissociation constant Kd came to 2810 pM in [5], 2910 pM in experiment [6] and 3220 pM in experiment [7]. The results for the off-rate constant (koff) in experiment [5], in experiment [6] and in experiment [7] were 0.000355 s⁻¹, 0.000583 s⁻¹ and 0.000693 s⁻¹, respectively. The association rate constant (kon) in [5] was 126000 M⁻¹ s⁻¹; in experiment [6], 200000 M⁻¹ s⁻¹; in experiment [7], 215000 M⁻¹ s⁻¹. The concentration for half-maximal inhibition (IC50) in [8] was 5710 pM; in experiment [9], 464 pM.

B2: RMP1-14 (antibody, V domains shown)
VH: EVQLQESGPGLVKPSQSLSLTCSVTGYSITSSYRWNWIRKFPGNRLEWMGYINSAGISNYNPSLKRRISITRDTSKNQFFLQVNSVTTEDAATYYCARSDNMGTTPFTYWGQGTLVTVSS
VL: DIVMTQGTLPNPVPSGESVSITCRSSKSLLYSDGKTYLNWYLQRPGQSPQLLIYWMSTRASGVSDRFSGSGSGTDFTLKISGVEAEDVGIYYCQQGLEFPTFGGGTKLELK
The molecule B2 returned a half-maximal inhibitory concentration (IC50) in [14] of 635 pM.

B3: 33C4 (antibody, V domains shown)
VH: QVQLVQSGAEVKKPGSSVKVSCKASGGTFSSSVISWVRQAPGQGLEWMGGIIPIFGTANYAQKFQGRVTITADESTSTAYMELSSLRSEDTAVYYCAREGLGCSGGSCYSGYYYGMDVWGQGTTVTVSS
VL: DIVMTQSPLSLPVTPGEPASISCRSSQSLLHSNGYNYLDWYLQKPGQSPQLLIYEASSLHTGVPDRFSGSGSGTDFTLKISRVEAEDVGVYYCMQGSHWPYTFGQGTKLEIK
notes: also called 780_39
Take B3: the Kd in experiment [15] is below 22 pM; in experiment [16], 704 pM; in experiment [17] it was below 10 pM; in [18] it was 205 pM; in experiment [19], below 10 pM; in experiment [20] it was 274 pM. Further, the Kd in experiment [21] is below 54 pM; in experiment [26] it was 10 to 20 pM; in experiment [35], 575 pM; in experiment [36], 6730 pM. Also, the EC50 in experiment [22] turned out to be 177 pM; in [23], 128 pM; in [25], 142 pM; in [27] it was 61 pM; in experiment [30], 75 pM; in experiment [32], 84 pM. Besides, the EC50 in experiment [37] turned out to be 131 pM; in experiment [38], 209 pM; in experiment [39], 41 pM; in experiment [40] it was 50 pM. Besides, the entries for the “OD450 at 10 nM” value in experiment [22], in experiment [27] and in [38] were 0.925 OD450, 0.578 OD450 and 0.95 OD450, respectively. For the same molecule, the “EC50, Promega blockade bioassay” value in experiment [24] came to 0.165 µg/mL. Moreover, the Fold induction in experiment [24] came out at 6.24 fold. Also, the IC50 in experiment [28] amounted to 2770 pM; in [29], 3300 pM; in [34], 2060 pM. Besides, the entries for the “Inhibition % at 50 nM” value in [28] and in experiment [34] were 93.3% and 92.5%, respectively. Besides, the “Inhibition, % at 5.56 nM” value in experiment [28] came to 88.9%. The “Inhibition, % at 3.7 nM” value in experiment [29] amounted to 53.4%. Also, the “Inhibition, % at 100 nM” value in [29] was found to be 94.6%. Besides, the “MFI at 5 nM” value in experiment [30] is 48.2 MFI; in experiment [32], 98.3 MFI. In addition, the “MFI, 5 nM” value in [31] was 179 MFI; in experiment [33], 65.2 MFI; in [41] it was 77.8 MFI; in experiment [42] it was 66.9 MFI. Further, the “Inhibition % at 5.6 nM” value in experiment [34] amounted to 91.2%. Further, the figures for the “MFI at 25 nM” value in [39] and in [40] were 17.6 MFI and 18.7 MFI, respectively.
